Reference: article PMC2930068 (Journal of molecular biology, 2010)
Several values for one entry are separate records, joined by “and”; a condition that tells them apart may be missing. Equal values may be shown once.

T1: pSTAT1 (1-712) F77A / L78A (UniProt P42224-2 1-712, F77A | L78A, phosphotyrosine at 701)
T1 sequence (looked up): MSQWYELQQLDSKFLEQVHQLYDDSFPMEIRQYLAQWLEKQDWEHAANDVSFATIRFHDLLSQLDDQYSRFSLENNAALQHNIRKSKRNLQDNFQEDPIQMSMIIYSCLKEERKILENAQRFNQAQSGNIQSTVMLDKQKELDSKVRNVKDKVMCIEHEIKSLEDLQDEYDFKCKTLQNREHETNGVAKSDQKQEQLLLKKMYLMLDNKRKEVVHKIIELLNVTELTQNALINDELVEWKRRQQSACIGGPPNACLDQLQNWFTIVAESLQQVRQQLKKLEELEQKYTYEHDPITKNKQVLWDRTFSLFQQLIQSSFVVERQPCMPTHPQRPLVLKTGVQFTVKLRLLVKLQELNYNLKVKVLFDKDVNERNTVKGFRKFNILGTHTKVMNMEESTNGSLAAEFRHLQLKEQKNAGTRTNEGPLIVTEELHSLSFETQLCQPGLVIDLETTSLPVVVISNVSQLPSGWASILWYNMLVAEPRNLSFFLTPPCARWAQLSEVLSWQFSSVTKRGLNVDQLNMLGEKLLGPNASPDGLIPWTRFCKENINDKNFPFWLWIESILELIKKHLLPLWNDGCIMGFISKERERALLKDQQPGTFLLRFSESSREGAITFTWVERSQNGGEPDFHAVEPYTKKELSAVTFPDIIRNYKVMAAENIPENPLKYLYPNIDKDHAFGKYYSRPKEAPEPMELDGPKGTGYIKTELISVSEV

B1: phosphorylated-Tyr701 STAT1 (1-712), N-terminal 6-histidine tag (natural protein, UniProt P42224-2 1-712, looked up)
chain: MSQWYELQQLDSKFLEQVHQLYDDSFPMEIRQYLAQWLEKQDWEHAANDVSFATIRFHDLLSQLDDQYSRFSLENNFLLQHNIRKSKRNLQDNFQEDPIQMSMIIYSCLKEERKILENAQRFNQAQSGNIQSTVMLDKQKELDSKVRNVKDKVMCIEHEIKSLEDLQDEYDFKCKTLQNREHETNGVAKSDQKQEQLLLKKMYLMLDNKRKEVVHKIIELLNVTELTQNALINDELVEWKRRQQSACIGGPPNACLDQLQNWFTIVAESLQQVRQQLKKLEELEQKYTYEHDPITKNKQVLWDRTFSLFQQLIQSSFVVERQPCMPTHPQRPLVLKTGVQFTVKLRLLVKLQELNYNLKVKVLFDKDVNERNTVKGFRKFNILGTHTKVMNMEESTNGSLAAEFRHLQLKEQKNAGTRTNEGPLIVTEELHSLSFETQLCQPGLVIDLETTSLPVVVISNVSQLPSGWASILWYNMLVAEPRNLSFFLTPPCARWAQLSEVLSWQFSSVTKRGLNVDQLNMLGEKLLGPNASPDGLIPWTRFCKENINDKNFPFWLWIESILELIKKHLLPLWNDGCIMGFISKERERALLKDQQPGTFLLRFSESSREGAITFTWVERSQNGGEPDFHAVEPYTKKELSAVTFPDIIRNYKVMAAENIPENPLKYLYPNIDKDHAFGKYYSRPKEAPEPMELDGPKGTGYIKTELISVSEV
modifications: phosphotyrosine at 701; alkylated with N-ethyl-maleimide

Key:
[1] = target: B1; assay: SPR
[2] = target: T1, pSTAT1 (1-712) F77A / L78A; assay: SPR
AUC = target: the molecule itself; assay: AUC

Kd [1] | koff [1] | kon [1] | Binder | stoichiometry N (AUC) | further results
153 ± 16 nM | 0.0218 s⁻¹ | 144000 M⁻¹ s⁻¹ | GST-ΔIBB-importin α5 (res. 79-538) (domain or fragment) not shown | – | –
166 ± 17 nM | 0.0204 s⁻¹ | 124000 M⁻¹ s⁻¹ | GST-importin α5 (res. 1-512) (domain or fragment) not shown | – | –
– | – | – | GST-importin α5 (res. 1-538) (natural protein) not shown | – | Kd [2]: 112 ± 22 nM; koff [2]: 0.0113 s⁻¹; kon [2]: 98100 M⁻¹ s⁻¹
– | – | – | unphosphorylated STAT1 (1-712), N-terminal 6-histidine tag (natural protein, UniProt P42224-2 1-712, looked up) MSQWYELQQLDSKFLEQVHQLYDDSFPMEIRQYLAQWLEKQDWEHAANDVSFATIRFHDLLSQLDDQYSRFSLENNFLLQHNIRKSKRNLQDNFQEDPIQMSMIIYSCLKEERKILENAQRFNQAQSGNIQSTVMLDKQKELDSKVRNVKDKVMCIEHEIKSLEDLQDEYDFKCKTLQNREHETNGVAKSDQKQEQLLLKKMYLMLDNKRKEVVHKIIELLNVTELTQNALINDELVEWKRRQQSACIGGPPNACLDQLQNWFTIVAESLQQVRQQLKKLEELEQKYTYEHDPITKNKQVLWDRTFSLFQQLIQSSFVVERQPCMPTHPQRPLVLKTGVQFTVKLRLLVKLQELNYNLKVKVLFDKDVNERNTVKGFRKFNILGTHTKVMNMEESTNGSLAAEFRHLQLKEQKNAGTRTNEGPLIVTEELHSLSFETQLCQPGLVIDLETTSLPVVVISNVSQLPSGWASILWYNMLVAEPRNLSFFLTPPCARWAQLSEVLSWQFSSVTKRGLNVDQLNMLGEKLLGPNASPDGLIPWTRFCKENINDKNFPFWLWIESILELIKKHLLPLWNDGCIMGFISKERERALLKDQQPGTFLLRFSESSREGAITFTWVERSQNGGEPDFHAVEPYTKKELSAVTFPDIIRNYKVMAAENIPENPLKYLYPNIDKDHAFGKYYSRPKEAPEPMELDGPKGTGYIKTELISVSEV | 2 | –
– | – | – | B1 | 2 and ~4 | –
247 ± 27 nM | 0.0243 s⁻¹ | 98300 M⁻¹ s⁻¹ | GST-importin α5 (res. 1-504) (domain or fragment) not shown | – | –
